Measurements published in the supplement of paper PMC9112550, “Optimization of the antimicrobial peptide Bac7 by deep mutational scanning” (BMC Biology, 2022).

Test system: Escherichia coli TOP10
Test: shrunken log2 fold change of peptide-encoding DNA abundance (4.5 h post-induction vs induction); higher = less antimicrobial activity (less host growth inhibition)
Settings: time post-induction: 4.5 h; library: site-saturation at positions 5, 18, 19, 20
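Further: peptides expressed intracellularly from a pBAD plasmid library in pooled LB shake-flask culture, induced with 0.3% L-arabinose, DNA abundance read by NGS, three biological replicates, DESeq2 with apeglm shrinkage.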

Row | Sequence | shrunken log2 fold change
1 | RRIRERPPRLPRPRPRPFVAPRP | 0.0108
2 | RRIRERPPRLPRPRPRPGCDPRP | 0.0125
3 | RRIRERPPRLPRPRPRPGCFPRP | 0.199
4 | RRIRERPPRLPRPRPRPGCRPRP | 0.0043
5 | RRIRERPPRLPRPRPRPGEMPRP | -0.0373
6 | RRIRERPPRLPRPRPRPGEWPRP | 0.0118
7 | RRIRERPPRLPRPRPRPGGIPRP | 0.0836
8 | RRIRERPPRLPRPRPRPGHAPRP | 0.304
9 | RRIRERPPRLPRPRPRPGHCPRP | 0.0591
10 | RRIRERPPRLPRPRPRPGHEPRP | 0.159
11 | RRIRERPPRLPRPRPRPGHRPRP | -0.117
12 | RRIRERPPRLPRPRPRPGHWPRP | 0.0159
13 | RRIRERPPRLPRPRPRPGKFPRP | -0.0178
14 | RRIRERPPRLPRPRPRPGKRPRP | 0.093
15 | RRIRERPPRLPRPRPRPGNGPRP | -0.0693
16 | RRIRERPPRLPRPRPRPGNRPRP | -0.0677
17 | RRIRERPPRLPRPRPRPGPCPRP | 0.183
18 | RRIRERPPRLPRPRPRPGRSPRP | -0.032
19 | RRIRERPPRLPRPRPRPGSFPRP | 0.0492
20 | RRIRERPPRLPRPRPRPGSWPRP | 2.45
21 | RRIRERPPRLPRPRPRPGTDPRP | 8.37e-05
22 | RRIRERPPRLPRPRPRPGTEPRP | -0.049
23 | RRIRERPPRLPRPRPRPGVMPRP | 0.0523
24 | RRIRERPPRLPRPRPRPGVTPRP | 0.00546
25 | RRIRERPPRLPRPRPRPGWFPRP | -0.249

Row | Sequence | shrunken log2 fold change
26 | RRIRERPPRLPRPRPRPGWRPRP | 0.0971
27 | RRIRERPPRLPRPRPRPGWYPRP | -0.0987
28 | RRIRERPPRLPRPRPRPHAVPRP | -0.34
29 | RRIRERPPRLPRPRPRPHCCPRP | -0.0271
30 | RRIRERPPRLPRPRPRPHCVPRP | 0.038
31 | RRIRERPPRLPRPRPRPHDDPRP | -0.147
32 | RRIRERPPRLPRPRPRPHDFPRP | -0.0616
33 | RRIRERPPRLPRPRPRPHDRPRP | -0.00992
34 | RRIRERPPRLPRPRPRPHDTPRP | -0.332
35 | RRIRERPPRLPRPRPRPHEMPRP | -0.039
36 | RRIRERPPRLPRPRPRPHEYPRP | -0.0163
37 | RRIRERPPRLPRPRPRPHFIPRP | -0.573
38 | RRIRERPPRLPRPRPRPHFPPRP | -0.151
39 | RRIRERPPRLPRPRPRPHGGPRP | -0.0234
40 | RRIRERPPRLPRPRPRPHGTPRP | 0.0284
41 | RRIRERPPRLPRPRPRPHHGPRP | -0.43
42 | RRIRERPPRLPRPRPRPHKAPRP | -0.0142
43 | RRIRERPPRLPRPRPRPHKLPRP | -0.635
44 | RRIRERPPRLPRPRPRPHKTPRP | 0.0137
45 | RRIRERPPRLPRPRPRPHLFPRP | -0.178
46 | RRIRERPPRLPRPRPRPHLYPRP | -0.858
47 | RRIRERPPRLPRPRPRPHRHPRP | -0.18
48 | RRIRERPPRLPRPRPRPHRYPRP | 0.0893
49 | RRIRERPPRLPRPRPRPHSAPRP | -0.179
50 | RRIRERPPRLPRPRPRPHTMPRP | -0.0656

Row | Sequence | shrunken log2 fold change
51 | RRIRERPPRLPRPRPRPHTPPRP | 0.229
52 | RRIRERPPRLPRPRPRPHTVPRP | -0.346
53 | RRIRERPPRLPRPRPRPHTYPRP | -0.281
54 | RRIRERPPRLPRPRPRPHVLPRP | -0.202
55 | RRIRERPPRLPRPRPRPHVTPRP | -0.228
56 | RRIRERPPRLPRPRPRPHWDPRP | -0.00134
57 | RRIRERPPRLPRPRPRPHWVPRP | 0.172
58 | RRIRERPPRLPRPRPRPHYFPRP | -0.658
59 | RRIRERPPRLPRPRPRPIAKPRP | 0.0393
60 | RRIRERPPRLPRPRPRPIAVPRP | 0.0116
61 | RRIRERPPRLPRPRPRPICDPRP | -0.221
62 | RRIRERPPRLPRPRPRPICFPRP | -0.221
63 | RRIRERPPRLPRPRPRPICGPRP | 0.0966
64 | RRIRERPPRLPRPRPRPICNPRP | -1.25
65 | RRIRERPPRLPRPRPRPIEYPRP | -0.207
66 | RRIRERPPRLPRPRPRPIFHPRP | -0.395
67 | RRIRERPPRLPRPRPRPIHAPRP | 0.0259
68 | RRIRERPPRLPRPRPRPIIFPRP | -0.352
69 | RRIRERPPRLPRPRPRPIINPRP | -0.702
70 | RRIRERPPRLPRPRPRPINAPRP | -0.129
71 | RRIRERPPRLPRPRPRPINQPRP | -0.734
72 | RRIRERPPRLPRPRPRPIRGPRP | 0.0978
73 | RRIRERPPRLPRPRPRPIRLPRP | -0.0614
74 | RRIRERPPRLPRPRPRPISKPRP | -0.575
75 | RRIRERPPRLPRPRPRPITYPRP | -0.546

Row | Sequence | shrunken log2 fold change
76 | RRIRERPPRLPRPRPRPIVIPRP | -0.233
77 | RRIRERPPRLPRPRPRPIVRPRP | -0.0604
78 | RRIRERPPRLPRPRPRPIWHPRP | -0.0406
79 | RRIRERPPRLPRPRPRPIYRPRP | -0.565
80 | RRIRERPPRLPRPRPRPIYTPRP | 0.036
81 | RRIRERPPRLPRPRPRPIYWPRP | -0.0719
82 | RRIRERPPRLPRPRPRPKAWPRP | 0.0873
83 | RRIRERPPRLPRPRPRPKDEPRP | -0.379
84 | RRIRERPPRLPRPRPRPKDKPRP | -0.15
85 | RRIRERPPRLPRPRPRPKEKPRP | 0.121
86 | RRIRERPPRLPRPRPRPKELPRP | 0.00511
87 | RRIRERPPRLPRPRPRPKIGPRP | -0.0947
88 | RRIRERPPRLPRPRPRPKILPRP | -0.0994
89 | RRIRERPPRLPRPRPRPKIMPRP | -1.24
90 | RRIRERPPRLPRPRPRPKINPRP | -0.488
91 | RRIRERPPRLPRPRPRPKNEPRP | -0.315
92 | RRIRERPPRLPRPRPRPKNMPRP | -0.479
93 | RRIRERPPRLPRPRPRPKNTPRP | -0.439
94 | RRIRERPPRLPRPRPRPKPEPRP | 0.12
95 | RRIRERPPRLPRPRPRPKQDPRP | -0.252
96 | RRIRERPPRLPRPRPRPKQQPRP | -0.0499
97 | RRIRERPPRLPRPRPRPKSYPRP | -0.0792
98 | RRIRERPPRLPRPRPRPKTSPRP | -0.102
99 | RRIRERPPRLPRPRPRPKVEPRP | -0.0672
100 | RRIRERPPRLPRPRPRPKYPPRP | -0.00672

Row | Sequence | shrunken log2 fold change
101 | RRIRERPPRLPRPRPRPLAQPRP | 0.21
102 | RRIRERPPRLPRPRPRPLCWPRP | -0.0772
103 | RRIRERPPRLPRPRPRPLDCPRP | -0.161
104 | RRIRERPPRLPRPRPRPLDMPRP | -0.16
105 | RRIRERPPRLPRPRPRPLDPPRP | -0.102
106 | RRIRERPPRLPRPRPRPLDWPRP | -0.0749
107 | RRIRERPPRLPRPRPRPLEEPRP | 0.239
108 | RRIRERPPRLPRPRPRPLFEPRP | -0.0266
109 | RRIRERPPRLPRPRPRPLGNPRP | -0.477
110 | RRIRERPPRLPRPRPRPLGVPRP | -0.171
111 | RRIRERPPRLPRPRPRPLHYPRP | -0.249
112 | RRIRERPPRLPRPRPRPLIGPRP | -0.0644
113 | RRIRERPPRLPRPRPRPLKAPRP | 0.225
114 | RRIRERPPRLPRPRPRPLKDPRP | -0.0646
115 | RRIRERPPRLPRPRPRPLKFPRP | -0.377
116 | RRIRERPPRLPRPRPRPLKHPRP | -0.425
117 | RRIRERPPRLPRPRPRPLKMPRP | -0.175
118 | RRIRERPPRLPRPRPRPLLCPRP | -0.183
119 | RRIRERPPRLPRPRPRPLLQPRP | -0.0771
120 | RRIRERPPRLPRPRPRPLNAPRP | -0.113
121 | RRIRERPPRLPRPRPRPLPSPRP | -0.0852
122 | RRIRERPPRLPRPRPRPLQAPRP | 0.167
123 | RRIRERPPRLPRPRPRPLRGPRP | 0.529
124 | RRIRERPPRLPRPRPRPLRIPRP | -0.277
125 | RRIRERPPRLPRPRPRPLRLPRP | 0.304

Row | Sequence | shrunken log2 fold change
126 | RRIRERPPRLPRPRPRPLSAPRP | -0.229
127 | RRIRERPPRLPRPRPRPLSFPRP | 0.329
128 | RRIRERPPRLPRPRPRPLSKPRP | -0.579
129 | RRIRERPPRLPRPRPRPLTAPRP | -0.286
130 | RRIRERPPRLPRPRPRPLVYPRP | -0.309
131 | RRIRERPPRLPRPRPRPLWRPRP | 0.0888
132 | RRIRERPPRLPRPRPRPMCHPRP | 0.0346
133 | RRIRERPPRLPRPRPRPMDEPRP | -0.153
134 | RRIRERPPRLPRPRPRPMDNPRP | -0.626
135 | RRIRERPPRLPRPRPRPMDVPRP | -0.0821
136 | RRIRERPPRLPRPRPRPMFAPRP | 0.0495
137 | RRIRERPPRLPRPRPRPMFMPRP | -0.468
138 | RRIRERPPRLPRPRPRPMFNPRP | -0.607
139 | RRIRERPPRLPRPRPRPMHSPRP | 0.0314
140 | RRIRERPPRLPRPRPRPMIWPRP | -0.21
141 | RRIRERPPRLPRPRPRPMLPPRP | -0.397
142 | RRIRERPPRLPRPRPRPMNPPRP | -0.488
143 | RRIRERPPRLPRPRPRPMPAPRP | -0.0153
144 | RRIRERPPRLPRPRPRPMQQPRP | -0.0321
145 | RRIRERPPRLPRPRPRPMTLPRP | -0.000163
146 | RRIRERPPRLPRPRPRPMWCPRP | 0.0762
147 | RRIRERPPRLPRPRPRPMYEPRP | -0.00246
148 | RRIRERPPRLPRPRPRPMYIPRP | -0.289
149 | RRIRERPPRLPRPRPRPNAGPRP | 0.0608
150 | RRIRERPPRLPRPRPRPNCAPRP | 0.172
